The record followed here is PMC3407194, “Viral Reverse Transcriptases Show Selective High Affinity Binding to DNA-DNA Primer-Templates that Resemble the Polypurine Tract”.

The target of data set [1] is T1, HIV RT (HIV, UniProt P04585;P04585 588-1147;588-1027). The experiment in a line: filter binding; no Mg2+; Primer extension: 50 mM Tris-HCl pH 8.0, 80 mM KCl, 6 mM MgCl2, 1 mM DTT, 0.1 mg/ml BSA, room temperature, 1 nM duplex; filter binding: Tris-HCl pH 8.0, 80 mM KCl, 1 mM DTT, without Mg2+ (wt) or 6 mM Mg2+ (E478Q), room temperature, 5 nM hybrid (Table 1 units nM inferred). The settings on record: protein: commercial, copies: 1;1, label: 5'-32P primer.

Data set [2] has as its target T1, HIV RT. Briefly: primer extension with trap; 6 mM Mg2+; Primer extension: 50 mM Tris-HCl pH 8.0, 80 mM KCl, 6 mM MgCl2, 1 mM DTT, 0.1 mg/ml BSA, room temperature, 1 nM duplex; filter binding: Tris-HCl pH 8.0, 80 mM KCl, 1 mM DTT, without Mg2+ (wt) or 6 mM Mg2+ (E478Q), room temperature, 5 nM hybrid (Table 1 units nM inferred). The settings on record: protein: commercial; copies: 1;1; label: 5'-32P primer; 41 nt primer on 45 nt template, 5' overhang 4 nt (template).

The target in data set [3] is T2, Ty3 RT (Ty3 retrotransposon, UniProt Q99315 536-1011).
T2 sequence: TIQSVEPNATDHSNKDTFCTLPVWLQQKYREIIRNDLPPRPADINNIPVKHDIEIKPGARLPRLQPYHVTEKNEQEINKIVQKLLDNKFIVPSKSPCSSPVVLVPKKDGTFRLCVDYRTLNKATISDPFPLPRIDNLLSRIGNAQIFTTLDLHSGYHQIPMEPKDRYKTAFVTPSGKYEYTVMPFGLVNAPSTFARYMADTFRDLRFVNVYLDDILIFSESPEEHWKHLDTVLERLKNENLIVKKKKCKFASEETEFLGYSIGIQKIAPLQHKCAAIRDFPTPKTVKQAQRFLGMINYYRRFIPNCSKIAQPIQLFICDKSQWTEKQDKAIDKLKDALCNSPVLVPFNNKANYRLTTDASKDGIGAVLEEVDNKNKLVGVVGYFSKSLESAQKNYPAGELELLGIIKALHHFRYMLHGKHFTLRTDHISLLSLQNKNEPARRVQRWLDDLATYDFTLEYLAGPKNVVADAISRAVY
The data set is described as above. The settings on record: protein: recombinant; label: 5'-32P primer; 41 nt primer on 45 nt template, 5' overhang 4 nt (template).

For data set [4], the target named is T3, AMV RT (avian myeloblastosis virus, UniProt Q83133;Q83133 6-577;6-864).
T3 sequence 1: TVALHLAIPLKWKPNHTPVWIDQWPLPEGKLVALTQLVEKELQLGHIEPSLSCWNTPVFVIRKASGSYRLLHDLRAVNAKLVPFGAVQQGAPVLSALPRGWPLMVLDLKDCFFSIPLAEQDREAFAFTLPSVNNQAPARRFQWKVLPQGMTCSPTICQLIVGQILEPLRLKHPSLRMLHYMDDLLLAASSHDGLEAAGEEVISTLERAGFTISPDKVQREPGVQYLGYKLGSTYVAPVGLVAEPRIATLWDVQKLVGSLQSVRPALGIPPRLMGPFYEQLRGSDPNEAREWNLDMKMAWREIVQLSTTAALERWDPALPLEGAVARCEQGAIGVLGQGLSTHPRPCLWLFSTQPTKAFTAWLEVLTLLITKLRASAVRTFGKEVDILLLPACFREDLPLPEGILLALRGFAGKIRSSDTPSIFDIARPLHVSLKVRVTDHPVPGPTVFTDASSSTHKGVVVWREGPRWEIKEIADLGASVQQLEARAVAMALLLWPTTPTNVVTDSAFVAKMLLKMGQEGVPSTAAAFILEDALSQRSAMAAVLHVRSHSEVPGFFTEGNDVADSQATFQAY
T3 sequence 2: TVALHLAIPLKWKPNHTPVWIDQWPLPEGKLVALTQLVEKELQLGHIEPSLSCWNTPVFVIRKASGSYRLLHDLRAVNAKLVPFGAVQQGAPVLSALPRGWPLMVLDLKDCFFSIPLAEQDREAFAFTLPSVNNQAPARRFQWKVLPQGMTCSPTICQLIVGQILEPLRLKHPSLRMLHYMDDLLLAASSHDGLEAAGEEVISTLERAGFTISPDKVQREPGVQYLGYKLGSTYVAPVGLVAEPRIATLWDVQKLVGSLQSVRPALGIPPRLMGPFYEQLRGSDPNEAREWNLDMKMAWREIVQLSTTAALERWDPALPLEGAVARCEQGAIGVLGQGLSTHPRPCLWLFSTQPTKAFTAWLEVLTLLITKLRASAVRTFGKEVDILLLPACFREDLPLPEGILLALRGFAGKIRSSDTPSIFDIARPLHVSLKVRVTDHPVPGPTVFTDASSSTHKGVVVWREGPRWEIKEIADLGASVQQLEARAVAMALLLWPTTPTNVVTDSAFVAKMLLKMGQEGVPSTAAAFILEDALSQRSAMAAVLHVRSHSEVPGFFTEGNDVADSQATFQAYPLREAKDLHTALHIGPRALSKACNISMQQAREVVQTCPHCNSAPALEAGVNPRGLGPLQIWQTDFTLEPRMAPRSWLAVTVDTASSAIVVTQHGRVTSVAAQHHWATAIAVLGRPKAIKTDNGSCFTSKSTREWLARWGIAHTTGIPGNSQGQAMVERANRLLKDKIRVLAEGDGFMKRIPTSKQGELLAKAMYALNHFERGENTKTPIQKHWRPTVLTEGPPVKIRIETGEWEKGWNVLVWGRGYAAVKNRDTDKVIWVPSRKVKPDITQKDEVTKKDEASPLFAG
The data set is described as above. The settings on record: protein: commercial; copies: 1;1; label: 5'-32P primer; 41 nt primer on 45 nt template, 5' overhang 4 nt (template).

Data set [5] addresses MuLV RT (Moloney murine leukemia virus, UniProt P03355 660-1330). The experiment in a line: primer extension with trap; 6 mM Mg2+; Primer extension: 50 mM Tris-HCl pH 8.0, 80 mM KCl, 6 mM MgCl2, 1 mM DTT, 0.1 mg/ml BSA, room temperature, 1 nM duplex; filter binding: Tris-HCl pH 8.0, 80 mM K.

By Kd is commonly meant a measure of binding affinity in units of concentration.

B1: Control-2 (DNA:RNA)
RNA: AAUUCGAGCUCGGUA
DNA: CAGTTACCGAGCTCGAATT
modifications: strand 1 RNA, strand 2 DNA
In data set [1] (5' overhang 4 nt (template)), B1 yielded a Kd of 2610 ± 710 nM.

B2: TY3 DNA PPT (dsDNA)
DNA 1: GCCTGCAGGTCGACTCTAGAGACAACCCTGAGAGAGAGGAA
DNA 2: CATCTTCCTCTCTCTCAGGGTTGTCTCTAGAGTCGACCTGCAGGC
With B2, the Kd in data set [2] was 57 ± 10 nM; in data set [3], 84 ± 26 nM; in data set [4], 12 ± 2 nM; in data set [5] it was 46 nM.

B3: AMV R12-3 (dsDNA)
DNA 1: GCCTGCAGGTCGACTCTAGACGGGCAGTGTAATGAAGGCCA
DNA 2: CTTCTGGCCTTCATTACACTGCCCGTCTAGAGTCGACCTGCAGGC
In data set [4], B3 returned a Kd of 6.8 ± 0.1 nM.

B4: MuLV R14-3 (dsDNA)
DNA 1: GCCTGCAGGTCGACTCTAGAGAGATGTAGCGCATGAAGGTA
DNA 2: CTTCTACCTTCATGCGCTACATCTCTCTAGAGTCGACCTGCAGGC
On to B4, for which the Kd in data set [5] turned out to be 53 nM.

B5: MuLV DNA PPT (dsDNA)
DNA 1: GCCTGCAGGTCGACTCTAGATAGTCTCCAGAAAAAGGGGGG
DNA 2: CATTCCCCCCTTTTTCTGGAGACTATCTAGAGTCGACCTGCAGGC
With B5, the Kd in data set [2] was 3.5 ± 0.5 nM; in data set [3], 45 ± 4 nM; in data set [4] it was 2.6 ± 0.2 nM; in data set [5] it was 12 nM.

B6: AMV DNA PPT (dsDNA)
DNA 1: GCCTGCAGGTCGACTCTAGAGCTTTTGCATAGGGAGGGGGA
DNA 2: CATTTCCCCCTCCCTATGCAAAAGCTCTAGAGTCGACCTGCAGGC
For the molecule B6, the Kd in data set [2] turned out to be 8.2 ± 2 nM; in data set [3], 58 ± 4 nM; in data set [4], 1 ± 0.1 nM; in data set [5], 17 nM.

B7: Control-1 (DNA:RNA)
?: AAAAGAAAAGCGCGC
DNA: CAGTGCGCGCTTTTCTTTT
modifications: strand 1 RNA, strand 2 DNA
Consider B7, for which, in data set [1] (5' overhang 4 nt (template)), the Kd worked out at 1760 ± 290 nM.

B8: Ty3 RNA PPT (DNA:RNA)
?: GAGCGCGCGGCC
DNA: CAGCGGCCGCGCGCTCAGG
modifications: strand 1 RNA, strand 2 DNA
Regarding B8, the Kd in data set [1] (template 5' overhang 4 nt, 3' overhang 3 nt) worked out at 2380 ± 840 nM.

B9: HIV DNA PPT (41/45) (dsDNA)
DNA 1: GCCTGCAGGTCGACTCTAGACTTTTTAAAAGAAAAGGGGGG
DNA 2: CAGTCCCCCCTTTTCTTTTAAAAAGTCTAGAGTCGACCTGCAGGC
Consider B9, for which the Kd in data set [2] is 3.2 ± 0.2 nM; in data set [3], 53 ± 12 nM; in data set [4] it was 2.1 ± 0.4 nM; in data set [5], 7.5 nM.

B10: MuLV R14-1 (dsDNA)
DNA 1: GCCTGCAGGTCGACTCTAGAATAAGGAAGATCTGCGGGGGG
DNA 2: CTTTCCCCCCGCAGATCTTCCTTATTCTAGAGTCGACCTGCAGGC
The molecule B10 gave a Kd in data set [5] of 8.1 nM.

B11: AMV R12-2 (dsDNA)
DNA 1: GCCTGCAGGTCGACTCTAGATCACAAAGACCGGCGGGGTAA
DNA 2: ATCTTTACCCCGCCGGTCTTTGTGATCTAGAGTCGACCTGCAGGC
As to B11, the Kd in data set [4] came to 3.5 ± 0.1 nM.

B12: Ty3+3 RNA PPT (DNA:RNA)
RNA: CCUGAGCGCGCGGCC
DNA: CAGCGGCCGCGCGCTCAGG
modifications: strand 1 RNA, strand 2 DNA
On to B12, for which the Kd in data set [1] (5' overhang 4 nt (template), printed U opposite A) was 900 ± 205 nM.

B13: MuLV R14-2 (dsDNA)
DNA 1: GCCTGCAGGTCGACTCTAGACACCAGGACATGATGGCAGGA
DNA 2: ATCTTCCTGCCATCATGTCCTGGTGTCTAGAGTCGACCTGCAGGC
In data set [5], B13 displayed a Kd of 77 nM.
